Reference: PMC7456325

Molecular target: T. suis B ΔC26 (Trichuris suis BCL-2-like protein B, C-terminal truncation) (Trichuris suis)
Assay: MST; Monolith NT.115; protein labelled with NHS RED, unlabelled synthetic peptide diluted in phosphate-buffered saline; 30 min incubation; 25 °C; 40% LED and 40% MST power; three independent experiments, single binding model

SVRAPIRLCDAMFLMCDLFERKFHDR [T. suis protein A BH3 peptide]
Kd: > 50 µM

PILPEVNKTALCMRAMGEVFEDRYKT [T. suis protein B BH3 peptide]
Kd: > 50 µM
